Assay results published in PMC6415886.

Biological target: T1, INTP5 (biosimilar pegfilgrastim, N-terminally pegylated filgrastim produced by Intas) (human), P09919
T1 chain: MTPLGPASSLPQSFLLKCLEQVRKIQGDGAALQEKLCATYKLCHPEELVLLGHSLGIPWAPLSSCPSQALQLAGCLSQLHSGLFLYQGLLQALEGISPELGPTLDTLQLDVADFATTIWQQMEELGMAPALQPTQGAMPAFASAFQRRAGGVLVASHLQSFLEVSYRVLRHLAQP
Assay: SEC-MALS; vortexed (stress aggregated) INTP5; TSKgel G3000 SWXL, phosphate buffer with 100 mM NaCl and 10% ethanol, 25°C; 36 μg loaded
Conditions: remark: other sources report otherwise

B1: INTP5 (biosimilar pegfilgrastim, N-terminally pegylated filgrastim produced by Intas), P09919-2 31-204 (ligand)
chain: MTPLGPASSLPQSFLLKCLEQVRKIQGDGAALQEKLCATYKLCHPEELVLLGHSLGIPWAPLSSCPSQALQLAGCLSQLHSGLFLYQGLLQALEGISPELGPTLDTLQLDVADFATTIWQQMEELGMAPALQPTQGAMPAFASAFQRRAGGVLVASHLQSFLEVSYRVLRHLAQP
modifications: here or on the partner: 20 kDa monomethoxypolyethylene glycol (mPEG) on the N-terminal amino group of Met1, secondary amine linkage; 20 kDa monomethoxypolyethylene glycol (mPEG) on the N-terminal amino group of Met1, secondary amine linkage
stoichiometry N: 2
